B1: TPR 5TU (parent)
chain: GGAUCUUCUCGAUCUAACAAAAAAGACAAAUCUGCCACAAAGCUUGAGAGCAUCUUCGGAUGCAGAGGCGGCAGCCUUCGGUGGCGCGAUAGCGCCAACGUUCUCAACUAUGACACGCAAAACGCGUGCUCCGUUGAAUGGAGUUUAUCAUG

Variants at the floor of the assay were thinned out.

In this data set the parent is B1. Put plainly: polymerase ribozyme fitness, log enrichment relative to wild type (log ratio); higher = more active; in vitro selection for triplet polymerase activity. In outline: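 Mutant libraries of both subunits of a heterodimeric triplet polymerase ribozyme were PCR-built, transcribed, and selected once in triplicate, with frozen incubation at −7 °C and capture of gel-excised extended constructs on streptavidin beads before RT-PCR. Illumina sequencing of input and output libraries was filtered to genotypes with ≥10 input reads and ≥1 read per output. Fitness is the logarithm of genotype enrichment over wild-type enrichment, using inverse-variance-weighted replicate averages. The logarithm is base 2.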
C76A C87U G140C: the “polymerase ribozyme fitness (log ratio)” value was at most -4.2.

In the case of G83A G88C A91G C95U A137G, the “polymerase ribozyme fitness (log ratio)” value is at most -4.2.

As for C76A G141C, the “polymerase ribozyme fitness (log ratio)” value was -2.39.

Consider G81A C87U U146G, for which the “polymerase ribozyme fitness (log ratio)” value was -3.41.

For C75G C93A C108G C132A G140A G143A, the “polymerase ribozyme fitness (log ratio)” value is -4.12.

For C75G C76G G92C, the “polymerase ribozyme fitness (log ratio)” value is at most -4.2.

On to U82G A142C, for which the “polymerase ribozyme fitness (log ratio)” value is -0.83.

For C75A A137C A150U, the “polymerase ribozyme fitness (log ratio)” value was at most -4.2.

For C75U G141A, the “polymerase ribozyme fitness (log ratio)” value is -0.767.

Turning to C79U G83A A107G A110G U144G, the “polymerase ribozyme fitness (log ratio)” value was at most -4.2.

In the case of G81A C95A C103A, the “polymerase ribozyme fitness (log ratio)” value is -2.93.

On to C76A A119U, for which the “polymerase ribozyme fitness (log ratio)” value is -0.979.

In the case of C79A U90A G133U G143C, the “polymerase ribozyme fitness (log ratio)” value was at most -4.2.

On to C76U C85G C125U U139G, for which the “polymerase ribozyme fitness (log ratio)” value was at most -4.2.

With U77A A113U, the “polymerase ribozyme fitness (log ratio)” value is at most -4.2.

Turning to C76A C87U U139G U144A, the “polymerase ribozyme fitness (log ratio)” value was -2.07.

As to G80U C93G, the “polymerase ribozyme fitness (log ratio)” value was -2.97.

Regarding U82G G92C, the “polymerase ribozyme fitness (log ratio)” value was -1.23.

Consider U82A G83A C99U G117A U144A, for which the “polymerase ribozyme fitness (log ratio)” value is -2.53.

Take C75U C87U: the “polymerase ribozyme fitness (log ratio)” value is 0.0996.

For C76A G86A A89U G133C U145G, the “polymerase ribozyme fitness (log ratio)” value is at most -4.2.

Consider G83C G92C G100A U104G U146A, for which the “polymerase ribozyme fitness (log ratio)” value was at most -4.2.

In the case of C76A C85A C95A A120G, the “polymerase ribozyme fitness (log ratio)” value is -2.33.

With C75G C87U, the “polymerase ribozyme fitness (log ratio)” value is -3.2.

Regarding G83A A89G C116U, the “polymerase ribozyme fitness (log ratio)” value is -1.69.

With C75G G92A C105G C114G U146C, the “polymerase ribozyme fitness (log ratio)” value is at most -4.2.

C75G G88A A98U C103U: the “polymerase ribozyme fitness (log ratio)” value was at most -4.2.

With G83U C118A, the “polymerase ribozyme fitness (log ratio)” value was -1.04.

On to U78A C105U A115U, for which the “polymerase ribozyme fitness (log ratio)” value is at most -4.2.

Regarding U82C U101A, the “polymerase ribozyme fitness (log ratio)” value stood at 0.112.

On to C79G C87G C114G, for which the “polymerase ribozyme fitness (log ratio)” value is at most -4.2.

On to G81A A120G U148C, for which the “polymerase ribozyme fitness (log ratio)” value is -2.99.

As to G83U C116U A122C, the “polymerase ribozyme fitness (log ratio)” value was -2.43.

C76U A119C: the “polymerase ribozyme fitness (log ratio)” value is -0.584.

For C76U A119U, the “polymerase ribozyme fitness (log ratio)” value was -0.561.

For the variant G74A G86C G100C C103G C105A U151A, the “polymerase ribozyme fitness (log ratio)” value is at most -4.2.

Regarding G80A G83C, the “polymerase ribozyme fitness (log ratio)” value was -3.01.

Turning to G83U C114G A115U A119U U134A, the “polymerase ribozyme fitness (log ratio)” value was at most -4.2.

On to G83A G94A, for which the “polymerase ribozyme fitness (log ratio)” value was -1.17.

Turning to G80A G92U A97G, the “polymerase ribozyme fitness (log ratio)” value was -0.375.

Turning to G83C G117U C131U, the “polymerase ribozyme fitness (log ratio)” value was -0.254.

As for U82G A115U, the “polymerase ribozyme fitness (log ratio)” value is -1.61.

For C75U C85U U135G U146A, the “polymerase ribozyme fitness (log ratio)” value was -3.82.

G81A C95A A147C: the “polymerase ribozyme fitness (log ratio)” value came out at 0.16.

For the variant G80A A97G, the “polymerase ribozyme fitness (log ratio)” value is -1.88.

On to C76A U127A, for which the “polymerase ribozyme fitness (log ratio)” value was -3.75.

Turning to G83A G143A, the “polymerase ribozyme fitness (log ratio)” value was -1.28.

Regarding U82G G92C A113U, the “polymerase ribozyme fitness (log ratio)” value was -3.

For U77A C96G G141U, the “polymerase ribozyme fitness (log ratio)” value is at most -4.2.

Take C76U G84U A113U A122U: the “polymerase ribozyme fitness (log ratio)” value was -3.77.

For G80A C85G C116G, the “polymerase ribozyme fitness (log ratio)” value was -2.05.

With G81U G84C C118G, the “polymerase ribozyme fitness (log ratio)” value was -3.16.

As for C76A G94C, the “polymerase ribozyme fitness (log ratio)” value was -0.703.

As to U78G C87A, the “polymerase ribozyme fitness (log ratio)” value is at most -4.2.

For the variant G83A G92U A119G A122C C149G, the “polymerase ribozyme fitness (log ratio)” value is -4.14.

On to G80C A115U, for which the “polymerase ribozyme fitness (log ratio)” value is at most -4.2.

With G83A G92U C96A A147C, the “polymerase ribozyme fitness (log ratio)” value was -3.05.

As to C79G C87U U144G, the “polymerase ribozyme fitness (log ratio)” value is -4.04.

In the case of C75U C85G C103A A107U U146G A147U A150G, the “polymerase ribozyme fitness (log ratio)” value was at most -4.2.

In the case of U82C C131G, the “polymerase ribozyme fitness (log ratio)” value is -2.45.

On to G83C U104G C118A, for which the “polymerase ribozyme fitness (log ratio)” value is -3.08.

With C76U U101G G124A, the “polymerase ribozyme fitness (log ratio)” value was -0.411.

Consider G83A G140C, for which the “polymerase ribozyme fitness (log ratio)” value was -3.99.

In the case of C76G C87A U144C G152A, the “polymerase ribozyme fitness (log ratio)” value is at most -4.2.

Take G81C G117U: the “polymerase ribozyme fitness (log ratio)” value is 0.139.

Take G83A C93U A107G: the “polymerase ribozyme fitness (log ratio)” value is at most -4.2.

Take G83C C87G C114U A120U A138G: the “polymerase ribozyme fitness (log ratio)” value was at most -4.2.

On to C76A A91G C114U, for which the “polymerase ribozyme fitness (log ratio)” value is -3.98.

On to U77A C132U, for which the “polymerase ribozyme fitness (log ratio)” value is at most -4.2.

With C79G C85A C114U, the “polymerase ribozyme fitness (log ratio)” value is at most -4.2.

C76U A147U: the “polymerase ribozyme fitness (log ratio)” value came to 0.639.

Take G81A C96A A98C: the “polymerase ribozyme fitness (log ratio)” value is -0.656.

Regarding G80C U82G C87U C99G, the “polymerase ribozyme fitness (log ratio)” value worked out at 0.273.

On to G74U C87A C116A U151G, for which the “polymerase ribozyme fitness (log ratio)” value is at most -4.2.

With C75U C96U, the “polymerase ribozyme fitness (log ratio)” value is -0.743.

Consider U77A A91G G94A, for which the “polymerase ribozyme fitness (log ratio)” value is at most -4.2.

With C76G G83U U90A G128U U135G, the “polymerase ribozyme fitness (log ratio)” value is at most -4.2.

For G83U A97U C105U G117U G141U, the “polymerase ribozyme fitness (log ratio)” value is at most -4.2.

For U78G C87G G92U A97C, the “polymerase ribozyme fitness (log ratio)” value is at most -4.2.

On to U77A G84A C85U C129A, for which the “polymerase ribozyme fitness (log ratio)” value is at most -4.2.

Regarding C76U U104G A106U G128U U151G, the “polymerase ribozyme fitness (log ratio)” value was at most -4.2.

G83A C129G: the “polymerase ribozyme fitness (log ratio)” value is -3.81.

As for G80C G81U, the “polymerase ribozyme fitness (log ratio)” value worked out at 0.0733.

The values are drawn from the RNAGym collection of RNA variant scans (doi:10.1073/pnas.2313332121).
